Experimental data published in US20240116985A1 (published 2024).
Starred links: 1 amine or outer side, 2 acyl side, 3 side chain; linkers in the order of their positions; H or OH if unused. Positions of bridges follow the written chain, without caps; N, C: chain ends. Non-standard residues stand in square brackets, D forms with d. Primed or numbered codes have the meaning given here. B5(15) = 2-amino-2-(pent-4-en-1-yl)hept-6-enoic acid (2,2-bis(4-pentenyl)glycine), stitching residue bearing two staples, C=CCCCC(CCCC=C)(N[*:1])C(=O)[*:2]; PyrS2″ = (S)-3-amino-1-((pent-4-en-1-yloxy)carbonyl)pyrrolidine-3-carboxylic acid (stapling residue), C=CCCCOC(=O)N1CC[C@@](N[*:1])(C(=O)[*:2])C1; B5(4) = 2,2-bis(4-pentenyl)glycine = 2-amino-2-(pent-4-en-1-yl)hept-6-enoic acid (stitching residue), C=CCCCC(CCCC=C)(N[*:1])C(=O)[*:2]; B5(5) = 2,2-bis(4-pentenyl)glycine, 2-amino-2-(pent-4-en-1-yl)hept-6-enoic acid (stitching residue), C=CCCCC(CCCC=C)(N[*:1])C(=O)[*:2]; PyrS2 = (S)-3-amino-1-((pent-4-en-1-yloxy)carbonyl)pyrrolidine-3-carboxylic acid, C=CCCCOC(=O)N1CC[C@@](N[*:1])(C(=O)[*:2])C1; (EtSSEt)AspE = (S)-2-amino-4-(2-(ethyldisulfaneyl)ethoxy)-4-oxobutanoic acid, CCSSCCOC(=O)C[C@H](N[*:1])C(=O)[*:2]; B5(3) = 2,2-bis(4-pentenyl)glycine (stitching residue), C=CCCCC(CCCC=C)(N[*:1])C(=O)[*:2]; B5 = 2-amino-2-(pent-4-en-1-yl)hept-6-enoic acid, C=CCCCC(CCCC=C)(N[*:1])C(=O)[*:2]; S6 = (S)-2-amino-2-methyloct-7-enoic acid, C=CCCCC[C@](C)(N[*:1])C(=O)[*:2]; S3 = (S)-2-amino-2-methylpent-4-enoic acid, C=CC[C@](C)(N[*:1])C(=O)[*:2]; Bta = N[C@@H](Cc1csc2ccccc12)C(=O)O; αAllylPro = C=CC[C@@]1(C(=O)O)CCCN1; tBuAla = CC(C)(C)C[C@H](N)C(=O)O; 3Thi = N[C@@H](Cc1ccsc1)C(=O)O; S8 = C=CCCCCCC[C@](C)(N)C(=O)O; hSer = N[C@@H](CCO)C(=O)O; Aib = CC(C)(N)C(=O)O

B1: I-1530: Ac-PL3-Asp-Ser-B5-Asp-Glu-Ala-Ala-Phe-Hse-S8-Phe-BztA-Gln-NH2 (peptide)
peptide: Ac-[αAllylPro]DS[B5(15)]DEAAF[hSer][S8]F[Bta]Q-NH2
modifications: staple 1-4, 4-11; not fully specified; printed as Ac-PL3-Asp-Ser-B5-Asp-Glu-Ala-Ala-Phe-Hse-S8-Phe-BztA-Gln-NH2
notes: Stapled peptide composition; It has the same description as I-1529 and is the staple isomer composition of the later eluting HPLC peak
B2: I-1531: Ac-PL3-Asp-Asn-B5-Asp-Glu-Ala-Ala-Phe-Gln-S8-Phe-BztA-Gln-NH2 (peptide)
peptide: XDNXDEAAFQXFXQ
modifications: not fully specified; N-terminal Ac; C-terminal NH2; PL3 at 1, B5 at 4 and S8 at 11 stapled by olefin metathesis (PL3-B5 and B5-S8); BztA at 13
notes: Stapled peptide composition; It has the same description as I-1532 and is the staple isomer composition of the earlier eluting HPLC peak
B3: I-1527: Ac-PL3-Asp-Ser-B5-Asp-Glu-Ala-Ala-Phe-Gln-S8-Phe-BztA-Gln-NH2 (peptide)
peptide: Ac-[αAllylPro]DS[B5(5)]DEAAFQ[S8]F[Bta]Q-NH2
modifications: staple 1-4, 4-11
notes: Stapled peptide composition; It has the same description as I-1526 and is the staple isomer composition of the later eluting HPLC peak
B4: I-1983 (peptide)
peptide: Ac-[αAllylPro]D[tBuAla][S3]DDAAFL[Aib][3Thi][Bta]Q-NH2
modifications: staple 1-4; not fully specified; printed as Ac-PL3-Asp-Npg-S3-Asp-Asp-Ala-Ala-Phe-Leu-Aib-3Thi-BztA-Gln-NH2; also: staple -CH=CH- reduced to -CH2-CH2-

Target: T1, B-cat-Halo (beta-catenin HaloTag NanoBRET construct expressed in HEK293 cells) (UniProt P35222 1-781, HaloTag NanoBRET 618 Ligand bound to the HaloTag)
T1 sequence (looked up): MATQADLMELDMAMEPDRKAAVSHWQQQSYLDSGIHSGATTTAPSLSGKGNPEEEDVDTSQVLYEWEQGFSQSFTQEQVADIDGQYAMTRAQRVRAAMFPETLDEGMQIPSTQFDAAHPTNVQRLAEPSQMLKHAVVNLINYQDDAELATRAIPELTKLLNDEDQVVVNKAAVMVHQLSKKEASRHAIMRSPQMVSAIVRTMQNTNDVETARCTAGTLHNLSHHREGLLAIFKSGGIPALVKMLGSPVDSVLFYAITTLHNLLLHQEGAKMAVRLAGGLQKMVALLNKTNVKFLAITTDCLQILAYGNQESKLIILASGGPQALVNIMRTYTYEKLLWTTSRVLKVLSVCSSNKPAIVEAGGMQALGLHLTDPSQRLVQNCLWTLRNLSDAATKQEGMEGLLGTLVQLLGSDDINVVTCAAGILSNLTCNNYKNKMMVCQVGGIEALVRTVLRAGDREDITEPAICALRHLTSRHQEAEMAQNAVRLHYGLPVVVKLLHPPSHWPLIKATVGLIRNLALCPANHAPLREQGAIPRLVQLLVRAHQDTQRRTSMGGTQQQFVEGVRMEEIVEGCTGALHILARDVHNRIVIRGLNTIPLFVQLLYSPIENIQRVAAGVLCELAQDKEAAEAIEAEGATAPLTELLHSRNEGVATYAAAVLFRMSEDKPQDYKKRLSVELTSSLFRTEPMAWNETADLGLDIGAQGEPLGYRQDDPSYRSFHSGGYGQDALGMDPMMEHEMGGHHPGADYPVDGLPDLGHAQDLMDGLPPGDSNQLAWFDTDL
Experiment: cell-based or functional assay

B1 and B2 cannot be ordered by “NanoBRET Abs IC50” value: 36.9 µM for the first, over 20 µM for the second.

With B3 the “NanoBRET Abs IC50” value was 30.3 µM.

Target: T2, B-cat-Halo (beta-catenin HaloTag Nano-BRET construct) (UniProt P35222 1-781)
T2 sequence (looked up): T1 sequence (looked up)
Experiment: cell-based or functional assay

Ac-[αAllylPro]D[tBuAla][B5(4)]D[(EtSSEt)AspE]AAFL[PyrS2″][3Thi][Bta]Q-NH2 (staple 1-4, 4-11) [I-1965] and B4 cannot be ordered by “NanoBRET Abs IC50” value: 25.2 µM for the first, over 20 µM for the second.

Ac-[αAllylPro]D[tBuAla][S6]DDAAFL[Aib][3Thi][Bta]Q-NH2 (staple 1-4) [I-1978] and Ac-[αAllylPro][(EtSSEt)AspE][tBuAla][B5(4)]DDAAFL[PyrS2″][3Thi][Bta]Q-NH2 (staple 1-4, 4-11) [I-1963] cannot be ordered by “NanoBRET Abs IC50” value: over 20 µM for the first, 25.6 µM for the second.

With Ac-[αAllylPro]D[tBuAla][S3]DDAAFL[Aib][3Thi][Bta]Q-NH2 (staple 1-4) [I-1980] the “NanoBRET Abs IC50” value was over 20 µM.

Target: T3, B-cat-Halo (beta-catenin HaloTag construct expressed in HEK293 cells) (UniProt P35222 1-781)
T3 sequence (looked up): T1 sequence (looked up)
Experiment: cell-based or functional assay

In order of rising “NanoBRET Abs IC50” value:
1. Ac-[αAllylPro]D[tBuAla][B5]DDAAFL[PyrS2][3Thi][Bta]Q-NH2 (staple 1-4, 4-11) [I-801]  5.8 µM
2. Ac-[αAllylPro]D[tBuAla][B5(3)]DDAAF[hSer][PyrS2″][3Thi][Bta]Q-NH2 (staple 1-4, 4-11) [I-803]  9.6 µM
3. Ac-[αAllylPro]D[tBuAla][B5]DDAAFN[PyrS2″][3Thi][Bta]S-NH2 (staple 1-4, 4-11) [I-815]  15.4 µM

Target: T4, beta-catenin in DLD1 TCF/LEF luciferase reporter cells (UniProt P35222 1-781)
T4 sequence (looked up): T1 sequence (looked up)
Experiment: cell-based or functional assay

In order of rising “DLD1 4% Abs IC50” value:
1. Ac-[αAllylPro]D[tBuAla][B5]DDAAFL[PyrS2][3Thi][Bta]Q-NH2 (staple 1-4, 4-11) [I-801]  4.3 µM
2. Ac-[αAllylPro]D[tBuAla][B5(3)]DDAAF[hSer][PyrS2″][3Thi][Bta]Q-NH2 (staple 1-4, 4-11) [I-803]  9 µM
3. Ac-[αAllylPro]D[tBuAla][B5]DDAAFN[PyrS2″][3Thi][Bta]S-NH2 (staple 1-4, 4-11) [I-815]  10.3 µM

Target: T5, full-length beta-Catenin (Uniprot ID P35222) (Homo sapiens (Human), UniProt P35222 1-781)
T5 construct: Any tags on the recombinant protein are not described for the FP assay; also called bCat; B-Catenin
T5 sequence: T1 sequence (looked up)
Experiment: fluorescence polarization competition; displacement of 5FAM-TCF4(10-53) from full-length beta-catenin
Summary of the method: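 Incubate 60 minutes at 20° C. away from light, then read polarization in duplicate. Fit to 1:1 binding with hill slope.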

In order of rising IC50:
1. B3  0.036 µM
2. B1  0.061 µM
3. B2  0.084 µM
